Experimental data taken from paper PMC8811837 (Advanced Science, 2021).

Target: T1, σ70 (E. coli, UniProt P00579)
T1 construct: also called σR4 (region 4); σ70 R4
Experiment: cryo-EM structure
Settings: both partners purified

T1 sequence (P00579 whole entry): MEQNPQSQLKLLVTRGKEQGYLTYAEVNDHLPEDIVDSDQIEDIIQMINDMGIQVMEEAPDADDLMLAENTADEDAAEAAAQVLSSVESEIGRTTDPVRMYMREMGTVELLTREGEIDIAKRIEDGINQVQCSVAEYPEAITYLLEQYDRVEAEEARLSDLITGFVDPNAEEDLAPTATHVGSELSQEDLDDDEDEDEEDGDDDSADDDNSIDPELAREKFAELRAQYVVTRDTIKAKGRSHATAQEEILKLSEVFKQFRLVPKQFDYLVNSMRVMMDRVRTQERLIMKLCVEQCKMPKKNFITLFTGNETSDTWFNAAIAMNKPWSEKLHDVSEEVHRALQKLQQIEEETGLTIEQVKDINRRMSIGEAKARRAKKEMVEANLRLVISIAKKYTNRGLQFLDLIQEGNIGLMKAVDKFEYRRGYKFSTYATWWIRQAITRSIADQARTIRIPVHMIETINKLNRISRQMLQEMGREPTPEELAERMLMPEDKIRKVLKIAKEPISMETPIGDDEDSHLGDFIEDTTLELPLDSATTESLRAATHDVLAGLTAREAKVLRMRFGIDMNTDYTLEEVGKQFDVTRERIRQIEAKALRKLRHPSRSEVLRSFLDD

B1: RamA (natural protein)
chain: MTISAQVIDTIVEWIDDNLHQPLRIDDIARHAGYSKWHLQRLFLQYKGESLGRYIRERKLLLAARDLRDTDQRVYDICLKYGFDSQQTFTRVFTRTFNQPPGAYRKENHSRAH
binding result: binds
